From patent US20250277030A1, “ANTI-NAPI2B ANTIBODIES AND METHODS OF USE” (Zymeworks BC Inc., priority 2022, published 2025)

Assays:
[1] = Stability (fragmentation) in mouse plasma at 37° C. by LC-MS; format: in vitro ADME; conditions: for apparent % desired proteoforms: Mouse Plasma 37° C., 0.5 mg/ml
Method: Samples were removed after 0, 7 and 14 days and stored at −80° C. until characterization. For characterization, samples were thawed at room temperature and 50 μg were incubated with 5 μg of recombinant EndoS endoglycosidase for one hour at room temperature. An immunoprecipitation slurry was generated by a 45 min incubation of 95 μL/sample of magnetic Sepharose streptavidin-coated beads with 15 μg/sample of biotinylated goat anti-Human IgG Fc capture antibody, followed by 4 washes with PBS pH 7.4 with the aid of a DynaMag™-2 magnet (Invitrogen™).
After deglycosylation, plasma-incubated samples were incubated with 95 μL of the immunoprecipitation slurry for 1.5 hrs at room temperature. Then, the slurry underwent 6 washes with PBS pH 7.4 and 2 washes with LC-MS-grade water with the aid of a DynaMag™-2 magnet (Invitrogen™). A final wash with PBS pH 7.4 was performed before elution. Protein was eluted by incubating beads with 35 μL of LC-MS grade water with 20% acetonitrile and 0.1% formic acid for one hour at room temperature. PBS samples were not immunoprecipitated.
5 μL of the eluted sample were transferred to glass inserts in LC-MS vials. For LC-MS analysis, 1 μL of sample were injected into a Waters™ BioSuite Phenyl Column, 1000 Å, 10 μm, 4.6 mm×75 mm using a Waters™ ACQUITY™ UPLC I-Class HPLC system coupled to a Waters™ Synapt™ G2-Si HDMS with a column temperature of 70 C and a flow rate of 0.3 mL/min. Mobile phases consisted of A: LC-MS grade water with 0.1% v/v formic acid, 0.025 v/v trifluoroacetic acid and 10% v/v isopropyl alcohol in, and B: acetonitrile with 0.1% v/v formic acid and 10% v/v isopropyl alcohol. The column was pre-equilibrated in 10% mobile phase B before injection. Then, a 20 min 10 to 27% mobile phase B gradient was applied, followed by a 2 min 27 to 90% mobile phase B gradient and a column wash of 2 min at 99% mobile phase B.
The column was re-equilibrated to 10% mobile phase B for 2 minutes between runs. ESI was performed in positive mode with 3 kV of capillary voltage, 120 C source temperature, 100 V sampling cone voltage, source offset of 80 V, source gas flow of 0 ml/min, desolvation temperature 500 C, cone gas flow 0 μL/Hr, desolvation gas flow […], nebuliser gas flow 6.5 bar. Data format was continuum with analyser set in sensitivity mode, with a m/z range from 500 to 7000.
Peak integration, MS deconvolution and mass assignments were performed in Protein Metrics Byos® v4.0 using a deconvolution window of 60000-160000 Da with an m/z range of 1000-4000. For all time points, the highest intensity deconvoluted mass was assigned as the reference mass of v29456. […]

[2] = Thermal stability by differential scanning calorimetry (DSC); format: physicochemical; conditions: 0.4 mg/mL in PBS, scan 20° C. to 100° C. at 60° C./hr
Method: The thermal stability of the humanized antibody variants was assessed by differential scanning calorimetry (DSC) as described below.
400 μL of purified samples primarily at concentrations of 0.4 mg/mL in PBS were used for DSC analysis with a VP-Capillary DSC (Malvern Panalytical Inc., Westborough, MA). At the start of each DSC run, 5 buffer blank injections were performed to stabilize the baseline, and a buffer injection was placed before each sample injection for referencing. Each sample was scanned from 20° C. to 100° C. at a 60° C./hr rate, with low feedback, 8 sec filter, 3 min pre-scan thermostat, and 70 psi nitrogen pressure. The resulting thermograms were referenced and analyzed using Origin 7 software (OriginLab Corporation, Northampton, MA) to determine melting temperature (Tm) as an indicator of thermal stability.

B1: v29456: humanized anti-NaPi2b IgG1/kappa antibody H1L2; VH SEQ ID NO:24, VL SEQ ID NO:29 (antibody, V domains shown)
VH: QVQLVQSGAEVKKPGASVKVSCKASGFTFTSYNVHWVRQAPGQGLEWMGAISPGNGDLSYAQKFQGRVTMTRDTSTSTVYMELSSLRSEDTAVYYCARGRTGMGAVDYWGQGTLVTVSS
VL: DVQMTQSPSSLSASVGDRVTITCRASQDVYSYLNWYQQKPGKAVKLLIYYTSRLQSGVPSRFSGSGSGTDYTLTISSLQPEDFATYYCQQYNIFPWTFGQGTKLEIK
modifications: v29452, v29456, v29460 VH (H1); v29453, v29454, v29455, v29456 VL (L2)
- fragmentation in mouse plasma, in words ([1]; 37° C., 7 and 14 days): no evidence of fragmentation
- apparent % desired proteoforms ([1]; 0 days): 99.9%
- apparent % desired proteoforms ([1]; 7 days): 100.0%
- apparent % desired proteoforms ([1]; 14 days): 98.4%
- Fab Tm [2]: 77.9 °C
